In patent publication US20030036181A1 (MAXYGEN, published 2003):

Target: T1, human FSH receptor, stably expressed on CHO K1 cells (CHO FSH-R/CRE-luc cell line) (human, UniProt P23945 18-695)
T1 sequence (looked up): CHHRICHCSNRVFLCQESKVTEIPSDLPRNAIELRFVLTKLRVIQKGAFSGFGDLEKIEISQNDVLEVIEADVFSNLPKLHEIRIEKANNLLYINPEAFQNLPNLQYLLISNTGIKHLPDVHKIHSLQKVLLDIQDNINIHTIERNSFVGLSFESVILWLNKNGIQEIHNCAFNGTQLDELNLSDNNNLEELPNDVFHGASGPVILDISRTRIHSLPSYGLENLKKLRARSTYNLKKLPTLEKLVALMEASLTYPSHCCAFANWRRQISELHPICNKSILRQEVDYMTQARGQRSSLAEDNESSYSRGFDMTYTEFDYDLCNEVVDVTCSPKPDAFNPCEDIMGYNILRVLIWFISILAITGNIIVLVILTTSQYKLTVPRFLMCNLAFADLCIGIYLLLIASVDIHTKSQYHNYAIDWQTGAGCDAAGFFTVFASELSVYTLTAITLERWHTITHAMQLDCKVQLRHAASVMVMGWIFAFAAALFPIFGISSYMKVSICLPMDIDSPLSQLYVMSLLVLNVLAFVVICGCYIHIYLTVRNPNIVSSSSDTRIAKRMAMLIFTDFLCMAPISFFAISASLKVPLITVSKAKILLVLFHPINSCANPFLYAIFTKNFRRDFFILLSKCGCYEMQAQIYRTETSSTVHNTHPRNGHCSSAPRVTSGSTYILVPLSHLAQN
Experiment: cell-based or functional assay

- specific activity (in vitro bioactivity in the FSH luciferase assay over FSH content by ELISA), relative to the wildtype reference: ~0.33 fold of wildtype FSH
B1: FSH1208: variant form of FSH containing two N-linked glycosylations at the N-terminus of the alpha subunit (ligand)
chain 1: not shown
chain 2: CELTNITIAIEKEECRFCISINTTWCAGYCYTRDLVYKDPARPKIQKTCTFKELVYETVRVPGCAHHADSLYTYPVATQCHCGKCDSDSTDCTVRGLGPSYCSFGEMKE
modifications: both asparagine residues of the extension … are glycosylated
